Reference: patent US20210355220A1 (TIKCRO TECHNOLOGIES, published 2021)

What was measured:
[1] = target: T1, Mouse (Mus musculus) CTLA-4 on HEK293 cells (Mus musculus, UniProt P09793 36-223); test: flow cytometry on HEK293 cells transiently expressing mouse CTLA-4, reference tremelimumab
T1 construct: whole, on cells; also called mouse CTLA-4
Method: Macaque (Macaca fascicularis), pig (Sus scrofa) and mouse (Mus musculus) CTLA-4 proteins were transiently expressed on the surface of HEK293 cells. […] Binding was measured using FACS and analyzed.

[2] = target: T2, human CTLA-4 expressed on cells (human, UniProt P16410 36-223); test: flow cytometry, inhibition of CD86-mFC binding to HEK293-hCTLA-4 cells, reference tremelimumab
T2 construct: whole, on cells; On stably or transiently transfected HEK293 cells; also called hCTLA-4; HEK293-hCTLA-4 cells
T2 sequence (P16410 36-223): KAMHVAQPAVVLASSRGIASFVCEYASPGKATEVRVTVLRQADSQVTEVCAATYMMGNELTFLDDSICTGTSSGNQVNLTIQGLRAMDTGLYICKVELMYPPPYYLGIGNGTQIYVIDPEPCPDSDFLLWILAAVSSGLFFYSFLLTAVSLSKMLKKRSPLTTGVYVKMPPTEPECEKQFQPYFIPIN
Method: As part of their activity, CTLA-4 therapeutic antibodies block the interaction between CTLA-4 and its ligands, leaving the ligands free for CD28 binding. […] First, HEK293-hCTLA-4 cells were incubated with the tested antibodies in a serial dilution for 30 minutes. […] The fluorescence was measured and analyzed. The experiment was performed in triplicate and is representative of three biological repeats.

B1: Ab55h (antibody, V domains shown)
VH: QVQLQESGPGLVKPSETLSLTCAVSGYSISGDYYWGWIRQPPGKGLEWIGSIYHSGYTYYNPSLKSRVTISVDTSKNQFSLKLSSVTAADTAVYYCARDSGWYVIAFDYWGQGTLVTVSS
VL: EIVMTQSPATLSVSPGERATLSCRASQSVSSNLAWYQEKPGQAPRLLIYGASTRATGIPARFSGSGSGTEFTLTISSLQSEDFAVYYCQQYNNWPPLTFGGGTKVEIK
notes: Human form, compared with an hIgG1 isotype control
Ratio Tremelimumab:Ab55h of EC50 [1]: 3 fold
Ratio Tremelimumab:Ab55h of IC50 [2]: 2.8 fold
